According to publication PMC4532469:

Experiments:
[1] = target: LTBP-2 C(H) F2, sub-fragment of human LTBP-2C(H) (six tandem EGF-like motifs, EGFs 9-14) (human); experiment: ELISA; solid phase binding assay, saturation curve: LTBP-2 or fragment coated on wells, increasing FGF-2 (0–30 ng/ml; 0–1.8 or 0–1.5 nM), 3 h at 37°C; BSA signal subtracted, bound FGF-2 from a standard ELISA curve; Kd by non-linear regression (GraphPad Prism) for a single binding site (Fig 3, Fig 4B, D, E)
[2] = target: recombinant human LTBP-2 central fragment LTBP-2C(H) (human); experiment: as above

- Kd [1]: 1.03 nM
- Kd [2]: 1.02 nM
Substance: recombinant human fibroblast growth factor-2 (FGF-2) (from UniProt P09038 143-288) (ligand)
